Measurements: patent US7803921B2, “Sulfotransferase 1E1 sequence variants” (Mayo Foundation for Medical Education and Research, priority 2002, dated 2010)
Where two headings read alike, the source gives them in different places. Marks after values point to notes of the source that are not given here.

Key:
[1] = system: SULT1E1; assay: SULT1E1 allozyme substrate kinetics (apparent Km, Vmax) with E2 and PAPS as cosubstrates; assay type: biochemical, human; conditions: for Vmax, PAPS as Varied Substrate / Km / Vmax, E2 as Varied Substrate: mean ± SEM (n = 3); for apparent Km for PAPS, fold higher than the wild type enzyme: PAPS as substrate; for apparent Km for PAPS, fold higher than the wild type enzyme / apparent Km for estradiol, fold higher than the wild type enzyme: versus wild type; for apparent Km for estradiol, fold higher than the wild type enzyme: estradiol as substrate
From the text: Other biochemical properties of allozymes, such as apparent Km values, also can be altered relative to the reference SULT1E1. Apparent Km values can be calculated, for example, by using the method of Wilkinson with a computer program written by Cleland. Wilkinson (1961) Biochem. J. 80:324-332 and Cleland (1963) Nature 198:463-365. As described herein, the apparent Km values for PAPS varied more than 3-fold among the allozymes tested (Asp22Tyr, Ala32Val, and Pro253His).
Apparent Km values for each allozyme were determined with both cosubstrates. Initial experiments used 10-fold serial dilutions of E2 that ranged from 10^−3 to 10^−9 M. Apparent Km values were calculated by using the method of Wilkinson with a computer program written by Cleland (see, Wilkinson (1961) Biochem J 80:324-332; and Cleland (1963) Nature 198:463-365). Maximal activity for all allozymes was found at E2 concentrations near 100 nM. A second set of experiments was performed in the presence of 0.4 μM PAPS using eight concentrations of E2 that varied from 3.1 nM to 400 nM.

[2] = system: SULT1E1; assay: Enzyme thermal stability (T50) of recombinant SULT1E1 allozymes; assay type: physicochemical, human; conditions: for T50 value as compared to the wild-type enzyme: in words; for Thermal Stability T50: temperature resulting in 50% thermal inactivation, 15 minutes at 28° C. to 46° C., mean ± SEM (n = 3)
Description: Enzyme thermal stability was measured by diluting COS-1 cell supernatant preparations for each of the recombinant SULT1E1 allozymes and incubating them in a water bath for 15 minutes at temperatures ranging from 28° C. to 46° C. The samples were placed on ice immediately after incubation. Aliquots of the same supernatant preparations also were kept on ice as controls. Enzyme activity was measured in both heated and unheated samples, and blank values were determined for each temperature studied.

[3] = 50 nM E2, PAPS 2.7 nM to 150 nM
[4] = 50 nM E2, PAPS 2.7 nM to 150 nM, read-out: Apparent Km, PAPS as Varied Substrate
[5] = 0.4 μM PAPS, E2 3.1 nM to 400 nM
[6] = 0.4 μM PAPS, E2 3.1 nM to 400 nM, read-out: Apparent Km, E2 as Varied Substrate

Molecule | Vmax, PAPS as Varied Substrate [1, 3] | Km [1, 4] [µM] | Vmax, E2 as Varied Substrate [1, 5] | Km [1, 6] [µM] | apparent Km for PAPS, fold higher than the wild type enzyme [1] | apparent Km for estradiol, fold higher than the wild type enzyme [1] | T50 value as compared to the wild-type enzyme [2] | Thermal Stability T50 [2]
Ala32Val: SULT1E1 allozyme with valine in place of alanine at residue 32 (thymine at nucleotide 95) (protein, UniProt P49888 1-294, looked up, variant A32V) Sulfotransferase 1E1: MNSELDYYEKFEEVHGILMYKDFVKYWDNVEVFQARPDDLVIATYPKSGTTWVSEIVYMIYKEGDVEKCKEDVIFNRIPFLECRKENLMNGVKQLDEMNSPRIVKTHLPPELLPASFWEKDCKIIYLCRNAKDVAVSFYYFFLMVAGHPNPGSFPEFVEKFMQGQVPYGSWYKHVKSWWEKGKSPRVLFLFYEDLKEDIRKEVIKLIHFLERKPSEELVDRIIHHTSFQEMKNNPSTNYTTLPDEIMNQKLSPFMRKGITGDWKNHFTVALNEKFDKHYEQQMKESTLKFRTEI | 5.7 ± 0.1^a nmol/hr/β-galactosidase units | 0.065 ± 0.0042 | 22.8 ± 6.6 nmol/hr/β-galactosidase units | 0.044 ± 0.005 | comparable to those of the wild type SULT1E1 enzyme | comparable to those of the wild type SULT1E1 enzyme | reduced T50 values | 36.7 ± 1.2 °C
Asp22Tyr: SULT1E1 allozyme with tyrosine in place of aspartic acid at residue 22 (thymine at nucleotide 64) (protein, UniProt P49888 1-294, looked up, variant D22Y) Sulfotransferase 1E1: MNSELDYYEKFEEVHGILMYKYFVKYWDNVEAFQARPDDLVIATYPKSGTTWVSEIVYMIYKEGDVEKCKEDVIFNRIPFLECRKENLMNGVKQLDEMNSPRIVKTHLPPELLPASFWEKDCKIIYLCRNAKDVAVSFYYFFLMVAGHPNPGSFPEFVEKFMQGQVPYGSWYKHVKSWWEKGKSPRVLFLFYEDLKEDIRKEVIKLIHFLERKPSEELVDRIIHHTSFQEMKNNPSTNYTTLPDEIMNQKLSPFMRKGITGDWKNHFTVALNEKFDKHYEQQMKESTLKFRTEI | 1.9 ± 0.1^a nmol/hr/β-galactosidase units | 0.24 ± 0.0092 | 4.7 ± 0.3^b nmol/hr/β-galactosidase units | 0.22 ± 0.03 | 3.3 fold | 6 fold | reduced T50 values | 35.0 ± 0.32^c ° C.
Pro253His: SULT1E1 allozyme with histidine in place of proline at residue 253 (adenine at nucleotide 758) (protein, UniProt P49888 1-294, looked up, variant P253H) Sulfotransferase 1E1: MNSELDYYEKFEEVHGILMYKDFVKYWDNVEAFQARPDDLVIATYPKSGTTWVSEIVYMIYKEGDVEKCKEDVIFNRIPFLECRKENLMNGVKQLDEMNSPRIVKTHLPPELLPASFWEKDCKIIYLCRNAKDVAVSFYYFFLMVAGHPNPGSFPEFVEKFMQGQVPYGSWYKHVKSWWEKGKSPRVLFLFYEDLKEDIRKEVIKLIHFLERKPSEELVDRIIHHTSFQEMKNNPSTNYTTLPDEIMNQKLSHFMRKGITGDWKNHFTVALNEKFDKHYEQQMKESTLKFRTEI | 34.8 ± 0.2^a nmol/hr/β-galactosidase units | 0.18 ± 0.0075 | 58.6 ± 2.5^b nmol/hr/β-galactosidase units | 0.097 ± 0.007 | ~2.8 fold | approximately 2.5 fold |  | 38.4 ± 0.46 °C
Wild type: reference human SULT1E1 enzyme (SEQ ID NO:7, GenBank U08098), recombinantly expressed in COS-1 cells (protein, listed as Homo sapiens) MNSELDYYEKFEEVHGILMYKDFVKYWDNVEAFQARPDDLVIATYPKSGTTWVSEIVYMIYKEGDVEKCKEDVIFNRIPFLECRKENLMNGVKQLDEMNSPRIVKTHLPPELLPASFWEKDCKIIYLCRNAKDVAVSFYYFFLMVAGHPNPGSFPEFVEKFMQGQVPYGSWYKHVKSWWEKGKSPRVLFLFYEDLKEDIRKEVIKLIHFLERKPSEELVDRIIHHTSFQEMKNNPSTNYTTLPDEIMNQKLSPFMRKGITGDWKNHFTVALNEKFDKHYEQQMKESTLKFRTEI | 27.2 ± 0.7^a nmol/hr/β-galactosidase units | 0.056 ± 0.0029 | 26.8 ± 4.4 nmol/hr/β-galactosidase units | 0.03 ± 0.005 |  |  |  | 38.5 ± 0.92 °C
